In US20190083609A1, “TOFACITINIB AS VACCINATION IMMUNE MODULATOR” (HELMOLTZ ZENTRUM MÜNCHEN - DEUTSCHES FORSCHUNGSZENTRUM FÜR …, priority 2016, published 2019):

Legend:
[1] = system: B cells (spleen cells from wild type mice); experiment: B cell stimulation in cell culture (CellTiter-Glo; IgE ELISA of supernatant); type: cell-based, mouse; conditions: Tofacitinib 50, 150, 500 ng/ml, 8 days
Experimental: (§2) For the T and B cell stimulation spleen cell from wild type mice were isolated and cells were cultivated in 200 μl/well in RPMI complete in cell culture plates (100,000 cells/well). For T cell stimulation total splenocytes were incubated 4 days with 1 ng/ml II-2 and 1 pg/ml anti-CD3 (Low) or 5 ng/ml II-2 and 10 pg/ml anti-CD3 (High) and three varying concentrations of Tofacitinib 50 ng/ml, 150 ng/ml and 500 ng/ml. For B cell stimulation cells were stimulated 8 days by incubation with 1 pg/ml anti-CD40 and 1L4 1 ng/ml (Low) and with 1 pg/ml anti-CD40 and 5 ng/ml (High) and three varying concentrations of Tofacitinib 50 ng/ml, 150 ng/ml and 500 ng/ml. The number of viable cells was determined by CellTiter-Glo Assay (Promega) and IgE concentration in the supernatant was measured by ELISA.

[2] = humans; cited from earlier work
human naive CD4+ T cells = experiment: Differentiation of human naive CD4+ T cells into FOXP3+ CD4+ T cells (flow cytometry); type: cell-based; conditions: for increase of the percentage of FOXP3 expressing cells: average of 3 donors versus polarization control; for FOXP3 producing cells within the living CD4+ T cell population: range of 3 donors, control 17.7-43.6%, 5 days
Experimental: For the differentiation of human naive CD4^+ T cells into FOXP3^+ CD4^+ T cells, human peripheral blood mononuclear cells were isolated from heparinized whole blood by standard density gradient centrifugation (Lymphoprep, Axis Shield, Oslo, Norway). Naive CD4^+ T cells were isolated using the Naive CD4^+ T cell Kit II (Miltenyi Biotec, Bergisch Gladbach, Germany) and by additional depletion of CD45RO^+ cells (CD45RO microbeads, Miltenyi Biotec). Cells were cultured in RPMI 1640 (Thermo Fisher Scientific, Waltham, Mass. USA) complete (10% FCS, Biochrom, Merck, Berlin, Germany; 2 mM L-glutamine, 100 U/mL Penicillin/Streptomycin, Thermo Fisher Scientific) in 24-well plates at a concentration of 1×10^6 cells/mL at 37° C. After isolation, cells were stimulated with plate-bound anti-CD3 (10 μg/mL; clone UCHT1, BD Biosciences) and 2 μg/mL anti-CD28 (clone CD28.2, BD Biosciences, 2 μg/mL) in solution and cultured for five days. To induce FOXP3 expression, the culture medium was supplemented with 50 U/mL rIL-2 (Novartis, Nurnberg, Germany) and 5 ng/mL TGF-01 (Promokine). Beneath this control, cells were cultured in the presence of different concentrations of Tofacitinib, Rapamycin (Sigma-Aldrich) and Cyclosporine A (Sigma-Aldrich). After three days of culture, half of the medium was removed and replaced by fresh RPMI 1640 complete, supplemented with the same doses of cytokines and agents as at day 0.
After five days of culture, the cells were washed with ice-cold PBS and stained with LIVE/DEAD Fixable Aqua Dead Cell Stain Kit (Thermo Fisher Scientific) according to the manufacturer's protocol. Moreover the cells were stained 1:300 with anti-CD4-Alexa Flour700 (BioLegend) and 1:100 with anti-FOXP3-eFlour450 (eBiosciences, affymetrix, Frankfurt am Main, Germany) by using the FOXP3/Transcription Factor Staining Buffer Set (eBiosciences, affymetrix) according to manufacturer's protocol. The acquisition of cells was performed with BD FACSDIVA 7.0 on a BD
LSR Fortessa (BD Biosciences). Data were analyzed with the software FlowJo (Tree Star, Ashland, Oreg.), the lymphocyte population was gated on CD4^+ cells and dead cells were excluded from the analysis.

[3] = system: T cells (total splenocytes from wild type mice); experiment: T cell stimulation in cell culture (viable cells by CellTiter-Glo); type: cell-based, mouse; conditions: Tofacitinib 50, 150, 500 ng/ml; IL-2/anti-CD3 low and high stimulation; 4 days
Experimental: as §2

OVA-allergic mice [4] = experiment: BAL cell infiltration by flow cytometry in OVA allergic airway inflammation / ASIT model; type: in vivo, mouse
Experimental: For allergic sensitization and allergen-challenge, mice were treated twice by intraperitoneal injection of […] OVA (chicken ovalbumin, Sigma, Germany) and 0.5 mg aluminum hydroxide (alum; 40 mg magnesium/40 mg alum per ml; inject® ThermoFischer, Rockford, USA) in 200 μl phosphate buffered saline (PBS) at day (D) 1 and D-7 as previously described (Aguilar-Pimentel J A, Alessandrini F, Huster K M, Jakob T, Schulz H, Behrendt H, et al. Specific CD8 T cells in IgE-mediated allergy correlate with allergen dose and allergic phenotype, Am J Respir Crit Care Med 2010; 181:7-16, and Fuchs H, Gailus-Durner V, Adler T, Aguilar-Pimentel J A, Becker L, Calzada-Wack J, et al. Mouse phenotyping, Methods 2011; 53:120-35). […]
Four experimental groups of mice each group consisting of 14 mice were analyzed in parallel (FIGS. 1 and 2): […]
Flow cytometry was performed to quantify cell surface markers of BAL cells using the following monoclonal antibodies: anti-CD8a, anti-Lytic, anti-CD4, anti-CD62L, anti-CD3, anti-CD25, anti- GO, anti-CD19, anti-CD11 b, anti-CD11 c, and anti-MHC-II (Fuchs H, Gailus-Durner V, Adler T, Aguilar-Pimentel J A, Becker L, Calzada-Wack J, et al. Mouse phenotyping, Methods 2011; 53:120-35). Data were acquired using a LSRII flow cytometer (BD Bioscience) and further analyzed with FACSDiVa (BD Bioscience) and Flowjo V.7.2.2 (Tree star, Ashland, USA) software. […]

OVA-allergic mice [5] = experiment: Cytokine profile in BAL fluid (MSD multiplex) in OVA allergic airway inflammation / ASIT model; type: in vivo, mouse
Experimental: (§1) For allergic sensitization and allergen-challenge, mice were treated twice by intraperitoneal injection of […] OVA (chicken ovalbumin, Sigma, Germany) and 0.5 mg aluminum hydroxide (alum; 40 mg magnesium/40 mg alum per ml; inject® ThermoFischer, Rockford, USA) in 200 μl phosphate buffered saline (PBS) at day (D) 1 and D-7 as previously described (Aguilar-Pimentel J A, Alessandrini F, Huster K M, Jakob T, Schulz H, Behrendt H, et al. Specific CD8 T cells in IgE-mediated allergy correlate with allergen dose and allergic phenotype, Am J Respir Crit Care Med 2010; 181:7-16, and Fuchs H, Gailus-Durner V, Adler T, Aguilar-Pimentel J A, Becker L, Calzada-Wack J, et al. Mouse phenotyping, Methods 2011; 53:120-35). Subsequently, mice were challenged by inhalative exposure to OVA aerosol (1% in PBS) for 10 min once a day at D-49, 52 and 55. 24 h after the last challenge (D-56) blood samples were collected and animals sacrificed to obtain bronchoalveolar lavage (BAL) samples.
For allergen-specific-immunotherapy (ASIT), animals were treated by subcutaneous injection of 1 mg OVA D-22, and 0.5 mg OVA D-29. For treatment with Tofacitinib, two doses per day were administrated on D-20 to D-24, and D-27 to D-31.
Flow cytometry was performed to quantify cell surface markers of BAL cells using the following monoclonal antibodies: anti-CD8a, anti-Lytic, anti-CD4, anti-CD62L, anti-CD3, anti-CD25, anti- GO, anti-CD19, anti-CD11 b, anti-CD11 c, and anti-MHC-II (Fuchs H, Gailus-Durner V, Adler T, Aguilar-Pimentel J A, Becker L, Calzada-Wack J, et al. Mouse phenotyping, Methods 2011; 53:120-35). Data were acquired using a LSRII flow cytometer (BD Bioscience) and further analyzed with FACSDiVa (BD Bioscience) and Flowjo V.7.2.2 (Tree star, Ashland, USA) software. Cytokines from BAL were analyzed by a multiplex measurement of proinflammatory cytokines from Meso Scale Discovery electrochemiluminescence assay (MSD, USA).

OVA-allergic mice [6] = experiment: Systemic (plasma) cytokine profile in OVA allergic airway inflammation / ASIT model; type: in vivo, mouse; conditions: after OVA-aerosol challenge
Experimental: as §1, with “samples. […]” for “samples.”
Mouse blood samples were collected before and after challenge as previously described (Aguilar-Pimentel J A, Alessandrini F, Huster K M, Jakob T, Schulz H, Behrendt H, et al. Specific CD8 T cells in IgE-mediated allergy correlate with allergen dose and allergic phenotype, Am J Respir Crit Care Med 2010; 181:7-16; Fuchs H, Gailus-Durner V, Adler T, Aguilar-Pimentel J A, Becker L, Calzada-Wack J, et al. Mouse phenotyping, Methods 2011; 53:120-35 and Fulton R J, McDade R L, Smith P L, Kienker L J, Kettman J R, Jr. Advanced multiplexed analysis with the FlowMetrix system, Clin Chem 1997; 43:1749-56) by puncturing the retro-orbital plexus (Li-heparin-coated tubes, KADE, Numbrecht, Germany) under isoflurane anesthesia. […] Plasma total IgE was measured using a classical immunoassay isotope-specific sandwich ELISA. […] Signal intensities of labeled total murine IgE were measured at 450 nm in a standard microwell ELISA reader and results reported in ng/ml based on a standard curve of purified IgE. […]

OVA-allergic mice [7] = experiment: Plasma immunoglobulins (total IgE ELISA, IgG1 MSD) after challenge in OVA allergic airway inflammation / ASIT model; type: in vivo, mouse
Experimental: as §1
For allergen-specific-immunotherapy (ASIT), animals were treated by subcutaneous injection of 1 mg OVA D-22, and 0.5 mg OVA D-29. For treatment with Tofacitinib, two doses per day were administrated on D-20 to D-24, and D-27 to D-31. […]

C[C@@H]1CCN(C(=O)CC#N)C[C@@H]1N(C)c1ncnc2[nH]ccc12 [Tofacitinib, 3-((3R, 4R)-4-methyl-3-[methyl-(7H-pyrrolo[2,3-d]pyrimidin-4-yl)-amino]-piperidin-1-yl)-3-oxopropionitrile]
proliferation of B cells ([1]; anti-CD40/IL4 low and high stimulation): significantly decreased
IgE production by B cells ([1]; anti-CD40/IL4 stimulation, supernatant ELISA): decreased
mean terminal plasma half-life [2]: 3.2 h
increase of the percentage of FOXP3 expressing cells (human naive CD4+ T cells; 0.1 μM): about 2.4 (+/−0.7) fold
FOXP3 producing cells within the living CD4+ T cell population (human naive CD4+ T cells; 0.1 μM): 57.2-77.1%
increase of the percentage of FOXP3 expressing cells (human naive CD4+ T cells; 1 μM): ~2.5 (+/−1.3) fold
FOXP3 producing cells within the living CD4+ T cell population (human naive CD4+ T cells; 1 μM): 51.1-70.6%
FOXP3-enhancing effect (human naive CD4+ T cells; 10 μM): diminished
cytotoxicity (human naive CD4+ T cells; 10 μM, data not shown): induced cytotoxicity
proliferation of T cells [3]: significantly decreased

CO[C@H]1C[C@@H]2CC[C@@H](C)[C@@](O)(O2)C(=O)C(=O)N2CCCC[C@H]2C(=O)O[C@H]([C@H](C)C[C@@H]2CC[C@@H](O)[C@H](OC)C2)CC(=O)[C@H](C)/C=C(\C)[C@@H](O)[C@@H](OC)C(=O)[C@H](C)C[C@H](C)/C=C/C=C/C=C/1C [Rapamycin]
FOXP3 expression relative to control (human naive CD4+ T cells; concentration not given): 1.3 fold

B1: OVA-ASIT: allergen-specific immunotherapy: subcutaneous injection of chicken ovalbumin (OVA) in OVA-sensitized mice (protein, UniProt P01012 2-386, looked up)
Ovalbumin: GSIGAASMEFCFDVFKELKVHHANENIFYCPIAIMSALAMVYLGAKDSTRTQINKVVRFDKLPGFGDSIEAQCGTSVNVHSSLRDILNQITKPNDVYSFSLASRLYAEERYPILPEYLQCVKELYRGGLEPINFQTAADQARELINSWVESQTNGIIRNVLQPSSVDSQTAMVLVNAIVFKGLWEKAFKDEDTQAMPFRVTEQESKPVQMMYQIGLFRVASMASEKMKILELPFASGTMSMLVLLPDEVSGLEQLESIINFEKLTEWTSSNVMEERKIKVYLPRMKMEEKYNLTSVLMAMGITDVFSSSANLSGISSAESLKISQAVHAAHAEINEAGREVVGSAEAGVDAASVSEEFRADHPFLFCIKHIATNAVLFFGRCVSP
suppression of total broncho-alveolar lavage cell infiltration (OVA-allergic mice [4]; compared to OVA-allergic mice, BAL 24 h after last challenge (D-56)): 88%
eosinophil BAL cell infiltration (OVA-allergic mice [4]; median [1st, 3rd quantile], OVA-allergic mice 81%, BAL at D-56): 63.18%
IFN-γ in BAL fluid (OVA-allergic mice [5]; barely detectable): marginally reduced
IL-2 in BAL fluid (OVA-allergic mice [5]; barely detectable): marginally reduced
IL-5 secretion in BAL (OVA-allergic mice [5]; mouse, in vivo): increase
secretion of Th2-cytokine IL-4 in BAL (OVA-allergic mice [5]; mouse, in vivo): reduced
inhibition of IL-1 beta secretion in BAL fluid (OVA-allergic mice [5]; versus OVA-allergic mice): 80%
inhibition of IL-6 secretion in BAL fluid (OVA-allergic mice [5]; versus OVA-allergic mice): 82%
inhibition of TNF-a secretion in BAL fluid (OVA-allergic mice [5]; versus OVA-allergic mice): 84%
inhibition of chemokine CXCL1 in BAL fluid (OVA-allergic mice [5]; versus OVA-allergic mice): 21%
effects on IL-2 plasma levels (OVA-allergic mice [6]): no significant effects
inhibition of IL-1beta plasma levels (OVA-allergic mice [6]): 41%
reduction of IL-6 plasma levels (OVA-allergic mice [6]): 44%
total IgG1 levels (OVA-allergic mice [7]; median [quantiles], OVA-allergic mice 0.8267 mg/ml): 1.936 mg/mL
reduction of total IgE-levels (OVA-allergic mice [7]; versus OVA-allergic mice): 43.5%
